As usually defined, the Kd is the free concentration of one partner at which half of the binding sites on the other are occupied at equilibrium, for simple one-to-one binding. Lower therefore signals tighter binding. By koff is commonly meant the first-order rate constant of dissociation. Usually kon stands for the rate constant with which the complex forms. Read a low kon as slow association.

Consider 2 molecules from article PMC11650997 (Journal of Virology, 2024).

In experiment [1] the target is T1, SARS-CoV-2 S protein ectodomain trimer, prefusion conformation, insect cell-expressed (SARS-CoV-2 Wuhan-Hu-1 (MN908947), UniProt P0DTC2, stabilised).
T1 construct: also called S trimer; trimeric S protein
The experiment is described as follows: SPR; […] (100 nM, 30 s) […]; 1:1 Langmuir fit. The settings on record: both partners purified. In general terms: SPR reads the build-up and loss of mass on a sensor chip optically.

The target of experiment [2] is T2, SARS-CoV-2 S protein ectodomain trimer in prefusion conformation (insect cell-expressed) (SARS-CoV-2 Wuhan-Hu-1 (MN908947), UniProt P0DTC2, stabilised).
T2 construct: also called trimeric SARS-CoV-2 S protein; S trimer
The experiment is described as follows: SPR; […] (100 nM) […]; 1:1 Langmuir fit. The settings on record: both partners purified.

B1: pT1616 (human monoclonal antibody, IgG1) (antibody, V domains shown)
VH: QVQLVQSGAEVKKPGSSVKVSCKASGGTFSSYTISWVRQAPGQGLECMGRIIPILGIANYAQKFQGRVTITADKSTSIAYMEVSSLRSEDTAVYYCATEVGYSGYGSAEYFNHWGQGTPVTVSS
VL: QSVLTQPPSVSGAPGQRVTISCTGSNSNIGAGYDVHWYQQLPGTAPKLLIYANNNRPSGVPDRFSGSRSGTSASLVITGLQADDEADYYCQSYDSSLTGSLFGGGTKLTVL
notes: also called bnAb pT1616; nAb pT1616; source: HEK293ExPi, transfected, purified from the supernatant (Protein G, SEC)
On to B1, for which, in experiment [1], the Kd came to 0.083 nM, the koff is 6.9e-05 s⁻¹ and the kon is 840000 M⁻¹ s⁻¹.

B2: pT1616 IgG1 (antibody, V domains shown)
VH: B1 VH
VL: B1 VL
notes: also called bnAb pT1616; nAb pT1616; source: HEK293ExPi, transfected, purified from supernatant (Protein G, SEC)
Regarding B2, the “fold lower KD for the S trimer than for the monomeric RBD” value in experiment [2] is above 3 fold.
